The values that follow come from patent US20180291101A1 (published 2018).

The target of test [1] is monomeric His-tagged human FcRn (hFcRn) (JTA) (human) (UniProt P55899). Briefly: SPR, IgG amine-coupled, hFcRn (JTA) injected, pH 6.0; first value of the cell (kinetic fit). For orientation: SPR reads the build-up and loss of mass on a sensor chip optically.
For test [2] the target is unchanged. Kind of test: SPR, IgG amine-coupled, hFcRn (JTA) injected, pH 6.0; second value of the cell (steady-state affinity model).
The target is the same in test [3]. Kind of test: SPR, IgG amine-coupled, hFcRn (JTA) injected, 1:1 fit, pH 6.0.
For test [4], the target named is hFcRn in hFcRn TG mice (human FCGRT transgene) (human, UniProt P55899 24-365). Kind of test: cell-based or functional assay.
Sequence of hFcRn in hFcRn TG mice (human FCGRT transgene) (P55899 24-365): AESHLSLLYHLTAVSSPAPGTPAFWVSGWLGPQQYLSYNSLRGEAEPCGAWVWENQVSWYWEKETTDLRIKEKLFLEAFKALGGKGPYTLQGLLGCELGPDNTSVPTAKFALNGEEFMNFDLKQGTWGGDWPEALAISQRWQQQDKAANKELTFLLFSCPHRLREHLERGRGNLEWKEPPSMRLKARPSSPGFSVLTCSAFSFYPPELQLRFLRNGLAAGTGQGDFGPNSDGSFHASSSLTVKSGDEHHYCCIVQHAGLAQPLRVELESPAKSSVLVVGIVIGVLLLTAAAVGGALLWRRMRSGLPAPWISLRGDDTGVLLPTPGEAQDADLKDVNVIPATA
The target of test [5] is T1, recombinant human FcRn (Sino Biological Inc. Cat. No. CT009-H08H) (human, UniProt P55899 24-297; P61769 21-119).
T1 construct: Bought protein; also called hFcRn (SINO); immobilized FcRn
T1 sequence (P55899 24-297 limits assumed, chain 1 of 2): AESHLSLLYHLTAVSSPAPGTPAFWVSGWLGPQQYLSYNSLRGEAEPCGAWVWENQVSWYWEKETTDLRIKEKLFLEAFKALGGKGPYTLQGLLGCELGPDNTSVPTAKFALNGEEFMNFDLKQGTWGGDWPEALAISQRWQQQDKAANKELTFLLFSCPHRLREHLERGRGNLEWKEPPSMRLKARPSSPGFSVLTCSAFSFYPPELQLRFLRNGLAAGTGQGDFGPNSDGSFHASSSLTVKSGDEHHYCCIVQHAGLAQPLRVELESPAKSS
T1 sequence (P61769 21-119 limits assumed, chain 2 of 2): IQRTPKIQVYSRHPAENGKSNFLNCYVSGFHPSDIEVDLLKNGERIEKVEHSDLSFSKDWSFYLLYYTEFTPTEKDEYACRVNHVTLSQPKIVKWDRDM
Briefly: competition ELISA vs biotinylated human serum IgG, pH 6.0. Background: An ELISA detects its analyte on a solid surface through an enzyme-linked reagent.

Test [6] addresses T1, recombinant human FcRn (Sino Biological …). Briefly: competition ELISA vs biotinylated parent murine antibody, pH 6.0.
Test [7] shares this target. Briefly: competition ELISA vs biotinylated parent murine antibody, pH 7.4.

Sequence of monomeric His-tagged human FcRn (hFcRn) (JTA) (human) (P55899 24-297 limits assumed, chain 1 of 2): as the sequence (P55899 24-297 limits assumed, chain 1 of 2) above
Sequence of monomeric His-tagged human FcRn (hFcRn) (JTA) (human) (P61769 21-119 limits assumed, chain 2 of 2, further chain): as the sequence (P61769 21-119 limits assumed, chain 2 of 2) above

The Kd is a measure of binding affinity in units of concentration. Low values mean higher affinity, high ones lower affinity. Consider human IgG4 (hIgG4) (antibody), for which the results for the Kd in test [1] and in test [2] were 1010 nM and 970 nM, respectively.
For orientation: koff means the rate constant with which the complex falls apart. What is called kon is the second-order rate constant of association. The low end stands for slow association, the high end for fast association. human IgG1 (hIgG1) (antibody) showed a Kd in test [1] of 763 nM. This molecule gave a Kd in test [2] of 1250 nM. Further, in test [3], the koff came to 0.0824 s⁻¹ and the kon was 108000 M⁻¹ s⁻¹.

B1: H3Vκ2 (H3VH1_Vκ2) IgG4 (antibody, V domains shown)
VH: QVQLVQSGAELKKPGASVKLSCKASGYTFTSYGISWVKQATGQGLEWIGEIYPRSGNTYYNEKFKGRATLTADKSTSTAYMELRSLRSEDSAVYFCARSTTVRPPGIWGTGTTVTVSS
VL: DIQMTQSPSSLSASVGDRVTITCKASDHINNWLAWYQQKPGQAPRLLISGATSLETGVPSRFSGSGTGKDYTLTISSLQPEDFATYYCQQYWSTPYTFGGGTKVEIK
B1: the “plasma concentration of HuLys11 (human IgG1) in hFcRn TG mice after 20 mg/kg” value in test [4] stood at 3 fold reduction.

B2: VH1_A8/Vκ1 IgG4 (antibody, V domains shown)
VH: QVQLVQSGAELKKPGASVKLSCKASGYTFTSYGISWVKQATGQGLEWIGEIYPRSGNTYYNEKFKGRATLTADKSTSTAYMELRSLKSEDSAVYFCARSTTVSPPAHWGTGTTVTVSS
VL: DIQMTQSPSYLSASVGDRVTITCKASDHINNWLAWYQQKPGQAPRLLISGATSLETGVPSRFSGSGTGKDYTLTISSLQTEDFATYYCQQYWSTPYTFGGGTKVEIK
notes: IgG4
Consider B2, for which, in test [5], the “average relative IC50 (normalized to parent murine antibody)” value was determined as 0.53 ratio. The “average relative IC50 (normalized to chimeric parent murine antibody)” value came out at 0.87 ratio in test [6] and 0.89 ratio in test [7].
